Patent US20240270866A1 (Alector, published 2024)

T1: mouse SIRPA overexpressed on CHO cells (mouse, UniProt P97797 32-513)
T1 construct: also called CHO-muSIRPA
T1 sequence: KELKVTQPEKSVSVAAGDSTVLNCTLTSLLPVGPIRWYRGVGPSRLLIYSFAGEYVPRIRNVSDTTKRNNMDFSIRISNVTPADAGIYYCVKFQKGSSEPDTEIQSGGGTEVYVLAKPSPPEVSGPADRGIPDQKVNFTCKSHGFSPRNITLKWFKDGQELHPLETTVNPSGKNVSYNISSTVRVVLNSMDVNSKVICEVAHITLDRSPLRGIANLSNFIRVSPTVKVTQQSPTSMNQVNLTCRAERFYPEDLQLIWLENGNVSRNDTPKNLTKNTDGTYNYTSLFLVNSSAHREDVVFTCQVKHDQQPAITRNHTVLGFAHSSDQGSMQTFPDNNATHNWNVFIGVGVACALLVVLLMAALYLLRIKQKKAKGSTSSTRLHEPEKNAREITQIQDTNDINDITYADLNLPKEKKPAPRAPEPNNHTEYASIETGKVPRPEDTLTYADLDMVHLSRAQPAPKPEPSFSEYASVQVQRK

T2: Mouse SIRPA D1 Fc (mouse, UniProt P97797 32-150, limits assumed)
T2 sequence: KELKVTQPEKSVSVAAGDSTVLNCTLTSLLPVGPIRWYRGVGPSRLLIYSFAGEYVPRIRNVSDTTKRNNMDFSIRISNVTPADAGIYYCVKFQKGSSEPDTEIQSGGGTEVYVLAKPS


Legend:
[1] = target: T3, human SIRPA Fc fusion antigen (human, UniProt P78324 31-373); assay: ForteBio Fab monovalent
T3 construct: heterologous signal peptide; not shown: human IgG1 Fc

[2] = target: T4, human SIRPβ1 Fc fusion antigen (human, UniProt O00241 30-371); assay: ForteBio Fab monovalent
T4 construct: not shown: human IgG1 Fc

[3] = target: T5, biotinylated human SIRPA (monomer) (human, UniProt P78324 31-373, limits assumed, biotinylated); assay: MSD-SET, Fab, equilibrium;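 further: solution equilibrium titration, free antigen captured on antibody-coated MSD plates and detected by electrochemiluminescence with labeled streptavidin, percent free antigen versus titrated antibody fit to quadratic model for KD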
T5 construct: monomer made by IdeS cleavage of a SIRPA Fc fusion; also called recombinant human SIRPA
Experimental: Antibodies (20 nM in PBS) were coated onto standard bind MSD-ECL plates overnight at 4° C. or at room temperature for 30 min. Plates were then blocked with 1% BSA for 30 min with shaking at 700 rpm, followed by three washes with wash buffer (PBSF+0.05% Tween 20). SET samples were applied and incubated on the plates for 150s with shaking at 700 rpm followed by one wash. Antigen captured on a plate was detected with 250 ng/ml sulfotag-labeled streptavidin in PBSF by incubation on the plate for 3 min. The plates were washed three times with wash buffer and then read on the MSD Sector Imager 2400 instrument using 1× Read Buffer T with surfactant. The percent free antigen was plotted as a function of titrated antibody in Prism and fit to a quadratic equation to extract the KD. To improve throughput, liquid handling robots were used throughout MSD-SET experiments, including SET sample preparation.

[4] = target: T1, mouse SIRPA overexpressed on CHO cells; assay: flow, CHO-muSIRPA;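 on relative MFI: antibody binding measured by flow cytometry: cells stained with 1 ug/ml test antibody for 1 h on ice, detected with PE-labelled secondary antibody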
[5] = target: Human SIRPb D1 Fc (human, UniProt O00241 30-148, limits assumed); assay: ForteBio IgG avid;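 further: antibody IgG captured on AHQ biosensors, then 100 nM Fc-fused SIRP antigen applied for 3 min, followed by 3 min buffer dissociation, kinetics fitted to a 1:1 model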
Experimental: (§1) Briefly, ForteBio affinity measurements were performed by loading IgGs on-line onto AHQ sensors. Sensors were equilibrated off-line in assay buffer for 30 min and then monitored on-line for 60 seconds for baseline establishment. For avid binding measurement, sensors with loaded IgGs were exposed to 100 nM antigen (human SIRPA or SIRPβ1 Fc fusion) for 3 min, afterwards they were transferred to assay buffer for 3 min for off-rate measurement. Additional avid binding was determined by loading biotinylated SIRPA monomer on SA sensors and exposure to 100 nM IgG in solution. Monovalent binding measurements were obtained by loading human SIRPA or SIRPβ1 Fc fusion antigens to AHQ sensor and followed by exposure to 100 nM anti-SIRPA antibody Fab. Additional monovalent measurements were made by loading biotinylated human SIRPA or SIRPβ1 monomer to SA sensor followed by exposure to 100 nM Fab in solution. Kinetics data were fit using a 1:1 binding model in the data analysis software provided by ForteBio.

[6] = target: T2, Mouse SIRPA D1 Fc; assay: ForteBio IgG avid;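 further: antibody IgG captured on AHQ biosensors, then 100 nM Fc-fused SIRP antigen applied for 3 min, followed by 3 min buffer dissociation, kinetics fitted to a 1:1 model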
Experimental: as §1

[7] = target: T6, Human SIRPA D1 Fc (human, UniProt P78324 32-137); assay: ForteBio IgG avid;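 further: antibody IgG captured on AHQ biosensors, then 100 nM Fc-fused SIRP antigen applied for 3 min, followed by 3 min buffer dissociation, kinetics fitted to a 1:1 model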
T6 construct: not shown: human IgG1 Fc

[8] = target: T7, human SIRPA overexpressed on CHO cells (human, UniProt P78324 31-504); assay: flow, CHO-huSIRPA;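 further: Anti-SIRPA antibodies applied at 1 µg/mL for 1 h on ice, binding read by flow cytometry using a PE-labelled secondary antibody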
T7 construct: also called CHO-huSIRPA

[9] = target: T1, mouse SIRPA overexpressed on CHO cells; assay: flow, CHO-muSIRPA; remark: listed apart in the source;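 on relative MFI: antibody binding measured by flow cytometry: cells stained with 1 ug/ml test antibody for 1 h on ice, detected with PE-labelled secondary antibody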

T4 sequence (O00241 30-371 limits assumed): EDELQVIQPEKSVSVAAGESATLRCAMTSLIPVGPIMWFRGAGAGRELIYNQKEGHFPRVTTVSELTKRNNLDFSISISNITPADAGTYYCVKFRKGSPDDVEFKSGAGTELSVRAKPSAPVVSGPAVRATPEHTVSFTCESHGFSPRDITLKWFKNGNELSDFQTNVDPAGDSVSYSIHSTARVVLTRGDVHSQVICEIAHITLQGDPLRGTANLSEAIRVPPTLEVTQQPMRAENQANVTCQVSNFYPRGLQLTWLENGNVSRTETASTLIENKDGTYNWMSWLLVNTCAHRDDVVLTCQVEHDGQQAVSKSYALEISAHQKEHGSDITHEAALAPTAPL
Human SIRPb D1 Fc, sequence (O00241 30-148 limits assumed): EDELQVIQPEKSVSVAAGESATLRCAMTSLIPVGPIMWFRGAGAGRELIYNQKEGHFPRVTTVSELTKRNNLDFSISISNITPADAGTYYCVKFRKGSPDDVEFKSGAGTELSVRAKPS

Binder | Kd [1] | Kd [3] | also measured
SA-5-57 Fab (Fab, V domains shown, papain Fab) VH: EVQLLESGGGLVQPGGSLRLSCAASGFTFDSYAMSWVRQAPGKGLEWVSATSGGGGSTYHADPVKGRFTISRDNSKNTLYLQMNSLRAEDTAVYYCAKDITDDFWSVTPPYFDLWGRGTLVTVSS VL: DIQLTQSPSSVSASVGDRVTITCRASQDISSWLAWYQQKPGKAPKLLIYAASSLQSGVPSRFSGSGSGTDFTLTISSLQPEDFATYYCQQGYIFPRTFGGGTKVEIK | 23.3 nM | – | binding result [2]: no binding (tested: 100 nM)
SA-5-59 Fab (Fab, V domains shown, papain Fab) VH: EVQLLESGGGLVQPGGSLRLSCAASGFTFDNYAMSWVRQAPGEGLEWVSAVSGSGGSTYYADSVRGRFTISRDNSKNTLYLQMDSLRAEDTAVYYCAKDTGIDFWARTPPYFDLWGRGTLVTVSS VL: DIQLTQSPSSVSASVGDRVTITCRASQDISSWLAWYQQKPGKAPKLLIYAASSLQSGVPSRFSGSGSGTDFTLTISSLQPEDFATYYCQQGYIFPRTFGGGTKVEIK | – | – | binding result [2]: no binding (tested: 100 nM)
SA-5-58 Fab (Fab, V domains shown, papain Fab) VH: EVQLLESGGGLVQPGGSLRLSCAASGFTFDSYAMSWVRQAPGKGLEWVSAISGSGGSTYHADSVKGRFTISRDNSKNTLYLQMNSLRAEDTAVYYCAKDTGISLWSVTPPYFDLWGRGTLVTVSS VL: DIQLTQSPSSVSASVGDRVTITCRASQDISSWLAWYQQKPGKAPKLLIYAASSLQSGVPSRFSGSGSGTDFTLTISSLQPEDFATYYCQQGYIFPRTFGGGTKVEIK | – | – | binding result [2]: no binding (tested: 100 nM)
SA-19-73 Fab (Fab, V domains shown, papain Fab) VH: QVQLVESGGGLVQPGGSLRLSCAASGFTFSSYAMHWVRQAPGKGLEWVAGILYDGSNKYYADSVKGRFTISRDNSKNTLYLQMNSLRAEDTAVYYCANSDTKYTLGFAFDIWGQGTMVTVSS VL: not shown | 1.62 nM | 0.18 nM | –
SA-19-75 Fab (Fab, V domains shown, papain Fab) VH: QVQLVESGGGVVQPGRSLRLSCAASGFTFSSYGMHWVRQAPGKGLEWVAVIAYDGSNKLYADSVKGRFTISRDNSKNTLYLQMNSLRAEDTAVYYCALMRTKYTLGFAFDIWGQGTMVTVSS VL: not shown | 1.67 nM | 0.42 nM | –
SA-19-77 Fab (Fab, V domains shown, papain Fab) VH: QVQLVESGGGVVQPGRSLRLSCAASGFTFSSYGMAWVRQAPGKGLEWVAQILYDGSNEYYADSVKGRFTISRDNSKNTLYLQMNSLRAEDTAVYYCARDLTKYTLGFAFDIWGQGTMVTVSS VL: not shown | 3.61 nM | 1.2 nM | –
SA-19-80 Fab (Fab, V domains shown, papain Fab) VH: EVQLLESGGGVVQPGRSLRLSCAASGFTFSSYGMHWVRQAPGKGLEWVAGILYDGSNKYYADSVKGRFTISRDNSKNTLYLQMDGLRAEDTAVYYCARHSVKYTLGFAFDIWGQGTMVTVSS VL: not shown | 2.26 nM | 0.22 nM | –
SA-19-78 Fab (Fab, V domains shown, papain Fab) VH: QVQLVESGGGVVQPGRSLRLSCAASGFTFSSYGMHWVRQAPGKGLEWVAVIAYDGSNKLYADSVKGRFTISRDNSKNTLYLQMDSLRAEDTAVYYCATSDTKYTLGFAFDIWGQGTMVTVSS VL: not shown | 1.53 nM | 0.084 nM | –
SA-19-74 Fab (Fab, V domains shown, papain Fab) VH: QVQLVESGGGVVQPGRSLRLSCAASGFAFSSYAMHWVRQAPGKGLEWVAGILYDGSNKYYADSVKGRFTISRDNSKNTLYLQMNSLRAEDTAVYYCARHSQKYTLGFAFDIWGQGTMVTVSS VL: not shown | 3.16 nM | 1.1 nM | –
SA-19-81 Fab (Fab, V domains shown, papain Fab) VH: QVQLVESGGGVVQPGRSLRLSCAASGFTSSSYGMHWVRQAPGKGLEWVAVIAYDGSNKLYADSVKGRFTISRDNSKNTLYLQMNSLRAEDTAVYYCARTPTKYTLGFAFDIWGQGTMVTVSS VL: not shown | 1.53 nM | 0.37 nM | –
SA-19-76 Fab (Fab, V domains shown, papain Fab) VH: QVQLVESGGGVVQPGRSLRLSCAASGFTFSSYGMHWVRQAPGKGLEWVAVIAYDGSNKLYADSVKGRFTISRDNAKNSLYLQMNSPRAEDTAVYYCATMRTKYTLGFAFDIWGQGTMVTVSS VL: not shown | 1.64 nM | 0.42 nM | –
SA-19-72 Fab (Fab, V domains shown, papain Fab) VH: QVQLVESGGGVVQPGRSLGLSCAASGFTFSSYAMHWVRQAPGKGLEWVAGILYDGSNKYYADSVKGRFTISRDNSKNTLYLQMNSLRAEDTAVYYCARSNEKYTLGFAFDIWGQGTMVTVSS VL: not shown | 4.95 nM | 0.88 nM | –
SA-19-79 Fab (Fab, V domains shown, papain Fab) VH: QVQLVESGGGVVQPGRSLRLSCAASGFTFSSYGMHWVRQAPGKGLEWVAVIAYDGSNKIYADSVKGRFTISRDNSKNTLYLQMNSLRAEDTAVYYCATTDTKYTLGFAFDIWGQGTMVTVSS VL: not shown | 0.689 nM | 0.14 nM | –
SA-3 (antibody, V domains shown, IgG) VH: not shown VL: EIVLTQSPATLSLSPGERATLSCRASQSVSSYLAWYQQKPGQAPRLLIYDASNRATGIPARFSGSGSGTDFTLTISSLEPEDFAVYYCQQHDFWPPTFGGGTKVEIK | – | – | relative MFI [4]: 0.518 fold over background; binding result [5]: no binding (tested: 100 nM); binding result [6]: no binding (tested: 100 nM); Kd [7]: 21.4 nM; relative MFI [8]: 0.595 fold over background; binding result [9]: no binding (tested: 1 ug/ml)
SA-4 (antibody, V domains shown, IgG) VH: not shown VL: EIVLTQSPATLSLSPGERATLSCRASQSVSSYLAWYQQKPGQAPRLLIYDASNRATGIPARFSGSGSGTDFTLTISSLEPEDFAVYYCQQDSNFPFTFGGGTKVEIK | – | – | relative MFI [4]: 0.491 fold over background; binding result [5]: no binding (tested: 100 nM); binding result [6]: no binding (tested: 100 nM); Kd [7]: 30.2 nM; relative MFI [8]: 0.87 fold over background; binding result [9]: no binding (tested: 1 ug/ml)

Further lines, with some results ahead:

Kd [1] | Kd [3] | Binder | also measured
0.772 nM | 0.12 nM | SA-56-85 Fab (Fab, V domains shown, papain Fab) VH: EVQLLESGGGVVQPGRSLGLSCAASGSTFSYYGMSWVRQAPGKGLEWVASIWVDGSNKYYADSVKGRFTISRDNSKSTLYLQMNSLRAEDTAVYYCARGVETYSGPNWFDPWGQGTLVTVSS VL: DIQMTQSPSSVSASVGDRVTITCRASQGISSWLAWYQQKPGKAPKLLIYAASSLQSGVPSRFSGSGSGTDFTLTISSLQPEDFATYYCQQAIYFPITFGGGTKVENQ | binding result [2]: no binding (tested: 100 nM)
1.1 nM | 0.17 nM | SA-56-87 Fab (Fab, V domains shown, papain Fab) VH: EVQLVESGGGVVQPGRSLRLSCAASGFTFSYYGMSWVRQAPGKGLEWVASIWVDGSNKYYADSVKGRFTISRDNSKNTLYLQMNSLRAEDTAVYYCAFGLETYSGPNWFDPWGQGTLVTVSS VL: DIQMTQSPSSVSASVGDRVTITCRASQGISSWLAWYQQKPGKAPKLLIYAASSLQSGVPSRFSGSGSGTDFTLTISSLQPEDFATYYCQQAIYFPITFGGGTKVEIK | binding result [2]: no binding (tested: 100 nM)
1.02 nM | 0.18 nM | SA-56-86 Fab (Fab, V domains shown, papain Fab) VH: QVQLVESGGGVVQPGGSLRLSCAASGFTFSYYGMSWVRQAPGKGLEWVASIWVDGSSKYYADSVKGRFTISRDNSKNTLYLQMNSLRAEDTAVYYCARGVETYSGPNWFDPWGQGTLVTVSS VL: DIQMTQSPSSVSASVGDRVTITCRASQGISSWLAWYQQKPGKAPKLLIYAASSLQSGVPSRFSGSGSGTDFTLTISSLQPEDFATYYCQQAIYFPITFGGGTKVEIK | –
1.44 nM | 0.27 nM | SA-19-82 Fab (Fab, V domains shown, papain Fab) VH: QVQLVESGGGVVQPGRSLRLSCAASGFTFSSYAMHWVRQAPGKGLEWVAGILYDGSNKYYADSVKGRFTISRDNSKNTLYLQMNSLRAEDTAVYYCARHVLKYTLGFAFDIWGQGTMVTVSS VL: not shown | –
1.44 nM | 0.31 nM | SA-19-83 Fab (Fab, V domains shown, papain Fab) VH: QVQLVESGGGVVQPGRSLRLSCAASGFTFDSYLMHWVRQAPGKGLEWVASIIYDGSNKYYADSVKGRFTISRDNSKNTLYLQMNSLRAEDTAVYYCASVRTKYTLGFAFDIWGQGTMVTVSS VL: not shown | –
2.02 nM | 0.64 nM | SA-19-84 Fab (Fab, V domains shown, papain Fab) VH: QVQLVESGGGVVQPGRSLRLSCAASGFTFSSYGMHWVRQAPGKGLEWVAVIAYDGSNKLYADSVKGRFTISRDNSKNTLYLQMNSLRAEDTAVYYCARTQLKYTLGFAFDIWGQGTMVTVSS VL: not shown | –
